IC50 data for 1 molecule are collected here from paper doi:10.1101/2024.04.26.591398 (2024).

This experiment has as its target T1, FITC-casein (FITC label (FITC-casein)).
T1 chain: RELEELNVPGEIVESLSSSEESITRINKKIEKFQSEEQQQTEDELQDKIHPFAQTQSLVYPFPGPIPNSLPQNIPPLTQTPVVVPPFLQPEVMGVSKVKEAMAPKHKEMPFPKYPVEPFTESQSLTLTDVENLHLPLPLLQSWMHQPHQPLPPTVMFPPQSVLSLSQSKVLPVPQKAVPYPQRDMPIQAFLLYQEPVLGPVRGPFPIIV
Kind of experiment: FP; competition: Ydj1 dissociating FITC-casein from Hsp104 R366E, ATPγS.

B1: Ydj1 (natural protein)
chain: MVKETKFYDILGVPVTATDVEIKKAYRKCALKYHPDKNPSEEAAEKFKEASAAYEILSDPEKRDIYDQFGEDGLSGAGGAGGFPGGGFGFGDDIFSQFFGAGGAQRPRGPQRGKDIKHEISASLEELYKGRTAKLALNKQILCKECEGRGGKKGAVKKCTSCNGQGIKFVTRQMGPMIQRFQTECDVCHGTGDIIDPKDRCKSCNGKKVENERKILEVHVEPGMKDGQRIVFKGEADQAPDVIPGDVVFIVSERPHKSFKRDGDDLVYEAEIDLLTAIAGGEFALEHVSGDWLKVGIVPGEVIAPGMRKVIEGKGMPIPKYGGYGNLIIKFTIKFPENHFTSEENLKKLEEILPPRIVPAIPKKATVDECVLADFDPAKYNRTRASRGGANYDSDEEEQGGEGVQCASQ
The molecule B1 showed an IC50 of about 20 µM.

Broadly, the IC50 is the concentration at which inhibition is half-maximal. A higher IC50 goes with a need for much substance.
